Laboratory results taken from US20260069707A1, “COMBINATION THERAPY WITH ANTIBODY-DRUG CONJUGATES AND HYALURONIDASES” (HALOZYME, INC., priority 2024, published 2026).
Values joined by “and” are separate entries in the source; they are usually repeats but may differ in a detail not shown here. Identical values can stand only once.

Assay: Serum PK of Enhertu: total antibody, total ADC, free payload (HPLC-MS/MS), IV vs SC vs SC + rHuPH20
Settings: for TADC/TAB Ratio: listed as ADC
Protocol: Serum concentrations of total ADC, total antibody and Free Payload (unconjugated deruxtecan) were determined in three separate assays using HPLC with MS/MS detection.
A 20.0-μL sample aliquot was diluted 10-fold. A portion of the diluted sample was taken and processed using an immunoaffinity approach. […] The bound proteins were subjected to “on-bead” proteolysis with trypsin. After trypsin digestion, the samples were split into two portions. One portion used the characteristic peptide fragments produced from the trypsin digestion to quantitate total antibody. The second portion was further digested using papain to hydrolyze Dxd from the antibody to quantitate total ADC.
VVSV was used for the quantitation of total antibody concentrations, DSTY was used for the quantitation of intact antibody (troubleshooting purposes only), and Dxd was used for quantitating Total ADC concentrations.
A nominal free Dxd, concentration range of […] was chosen to quantitate samples. This assay requires a 50.0 μL porcine serum and skin aliquot. Samples were kept frozen at −80° C. prior to analysis.
A matrix aliquot is fortified with internal standard. Analytes are isolated through acidified protein precipitation. The eluate is evaporated under a nitrogen stream, and the remaining residue is reconstituted. Final extracts are analyzed via HPLC MS/MS detection using positive ion electrospray.

Which “Relative difference in serum AUC0-7, Free Payload, vs. ADC-IV” value (SC vs. ADC-IV) does the source give for Sacituzumab govitecan [Trodelvy] here?
Its value is 83%.

And the “Relative difference in serum AUC0-7, TAB, vs. ADC-IV” value (SC vs. ADC-IV)?
The value was 59%.

And the “Relative difference in serum AUC0-7, TADC, vs. ADC-IV” value (SC vs. ADC-IV)?
Its value is 60%.

And the “Relative difference in serum Cmax, Free Payload, vs. ADC-IV” value (SC vs. ADC-IV)?
The value was 70%.

What about the “Relative difference in serum Cmax, TAB, vs. ADC-IV” value (SC vs. ADC-IV) of the same substance?
The value was 28%.

What about the “Relative difference in serum Cmax, TADC, vs. ADC-IV” value (SC vs. ADC-IV) of the same substance?
Its value is 29%.

And the “TADC/TAB ratio - serum, mean” value (SC, 6 h)?
The value was 1.054.

And the “TADC/TAB ratio - serum, mean” value (SC, 24 h)?
The value was 1.195.

And the “TADC/TAB ratio - serum, mean” value (SC, 48 h)?
The value was 0.796.

And the “TADC/TAB ratio - serum, mean” value (SC, 72 h)?
The value was 0.806.

What about the “TADC/TAB ratio - serum, mean” value (SC, 96 h) of the same substance?
Its value is 0.765.

What about the “TADC/TAB ratio - serum, mean” value (SC, 168 h) of the same substance?
The value was 1.028.

What about the “SC/IV, mean AUC0-7, ADC” value (minipig serum) of the same substance?
Its value is 60%.

What about the “SC/IV, mean AUC0-7, Ab” value (minipig serum) of the same substance?
Its value is 59%.

What about the “SC/IV, mean AUC0-7, Payload” value (minipig serum) of the same substance?
The value was 83%.

What about the “SC/IV, mean Cmax, ADC” value (minipig serum) of the same substance?
The value was 29%.

What about the “SC/IV, mean Cmax, Ab” value (minipig serum) of the same substance?
Its value is 28%.

And the “SC/IV, mean Cmax, Payload” value (minipig serum)?
Its value is 70%.

What about the “ADC/Ab ratio, mean AUC0-7” value (minipig serum, IV) of the same substance?
The value was 86%.

And the “ADC/Ab ratio, mean Cmax” value (minipig serum, IV)?
Its value is 93%.

And the “ADC/Payload ratio, mean AUC0-7” value (minipig serum, IV)?
The value was 116066%.

What about the “ADC/Payload ratio, mean Cmax” value (minipig serum, IV) of the same substance?
Its value is 201037%.

What about the “ADC/Ab ratio, mean AUC0-7” value (minipig serum, SC) of the same substance?
The value was 87%.

What about the “ADC/Ab ratio, mean Cmax” value (minipig serum, SC) of the same substance?
The value was 96%.

And the “ADC/Ab ratio, mean Tmax” value (minipig serum, SC)?
The value was 60%.

What about the “ADC/Payload ratio, mean AUC0-7” value (minipig serum, SC) of the same substance?
The value was 83512%.

What about the “ADC/Payload ratio, mean Cmax” value (minipig serum, SC) of the same substance?
The value was 83474%.

What about the “ADC/Payload ratio, mean Tmax” value (minipig serum, SC) of the same substance?
Its value is 57%.

And the “AUC0-7, free payload in serum” value (pig, in vivo, iv)?
Its value is 0.04 µg·days/mL.

And the “AUC0-7, total ADC in serum” value (pig, in vivo, iv)?
The value was 47.73 µg·days/mL.

What about the “AUC0-7, total antibody in serum” value (pig, in vivo, iv) of the same substance?
The value was 55.38 µg·days/mL.

And the AUC0-7 free payload (pig, in vivo, iv)?
The AUC0-7 free payload was 0.04 µg·days/mL.

And the “AUC0-7 total ADC (TADC)” value (pig, in vivo, iv)?
The value was 47.73 µg·days/mL.

And the “AUC0-7 total antibody (TAB)” value (pig, in vivo, iv)?
The value was 55.38 µg·days/mL.

What about the Cmax free payload (pig, in vivo, iv) of the same substance?
The Cmax free payload was 0.01 µg/mL.

And the “Cmax total ADC (TADC)” value (pig, in vivo, iv)?
Its value is 25.12 µg/mL.

And the “Cmax total antibody (TAB)” value (pig, in vivo, iv)?
Its value is 27.00 µg/mL.

What about the “Cmax, free payload in serum” value (pig, in vivo, iv) of the same substance?
The value was 0.01 µg/mL.

What about the “Cmax, total ADC in serum” value (pig, in vivo, iv) of the same substance?
Its value is 25.12 µg/mL.

And the “Cmax, total antibody in serum” value (pig, in vivo, iv)?
The value was 27.00 µg/mL.

And the Tmax free payload (pig, in vivo, iv)?
The Tmax free payload was 0 days.

What about the “Tmax total ADC (TADC)” value (pig, in vivo, iv) of the same substance?
The value was 0 days.

And the “Tmax total antibody (TAB)” value (pig, in vivo, iv)?
Its value is 0 days.

And the “Tmax, free payload in serum” value (pig, in vivo, iv)?
The value was 0 days.

And the “Tmax, total ADC in serum” value (pig, in vivo, iv)?
The value was 0 days.

What about the “Tmax, total antibody in serum” value (pig, in vivo, iv) of the same substance?
Its value is 0 days.

What about the “Total ADC concentration in the serum of minipigs” value (“Total ADC concentration” below) (pig, in vivo, iv, 0 h) of the same substance?
Its value is 25.12 µg/mL.

What about the “Total ADC Result” value (pig, in vivo, iv, 5 mL) of the same substance?
The value was under 0.100 µg/mL.

What about the “Total ADC concentration” value (pig, in vivo, iv, 5 mL, 6 h) of the same substance?
The value was 21.40 µg/mL.

And the “Total ADC concentration” value (pig, in vivo, iv, 5 mL, 24 h)?
The value was 12.80 µg/mL.

And the “Total ADC Result” value (pig, in vivo, iv, 6 h)?
The value was 21.4 µg/mL.

And the “Total ADC Result” value (pig, in vivo, iv, 24 h)?
Its value is 12.8 µg/mL.

What about the “Total ADC Result” value (pig, in vivo, iv, 48 h) of the same substance?
Its value is 7.28 µg/mL.

And the “Total ADC concentration” value (pig, in vivo, iv, 48 h)?
Its value is 7.28 µg/mL.

And the “Total ADC Result” value (pig, in vivo, iv, 72 h)?
The value was 5.04 µg/mL.

And the “Total ADC concentration” value (pig, in vivo, iv, 72 h)?
The value was 5.04 µg/mL.

And the “Total ADC Result” value (pig, in vivo, iv, 96 h)?
Its value is 3.91 µg/mL.

And the “Total ADC concentration” value (pig, in vivo, iv, 96 h)?
Its value is 3.91 µg/mL.

What about the “Total ADC Result” value (pig, in vivo, iv, 168 h) of the same substance?
The value was 1.70 µg/mL.

What about the “Total ADC concentration” value (pig, in vivo, iv, 168 h) of the same substance?
The value was 1.70 µg/mL.

And the “Tmax total ADC (TADC)” value (pig, in vivo, sc)?
The value was 1 days.

What about the “Tmax, total ADC in serum” value (pig, in vivo, sc) of the same substance?
Its value is 1 days.

What about the “Total ADC Result” value (pig, in vivo, sc, 0 h) of the same substance?
Its value is under 0.100 µg/mL.

What about the “Total ADC concentration” value (pig, in vivo, sc, 5 mL, 6 h) of the same substance?
The value was 4.08 µg/mL.

And the “Total ADC concentration” value (pig, in vivo, sc, 5 mL, 24 h)?
The value was 7.27 µg/mL.

What about the “Total ADC concentration” value (pig, in vivo, sc, 48 h) of the same substance?
Its value is 5.17 µg/mL.

And the “Total ADC concentration” value (pig, in vivo, sc, 72 h)?
Its value is 4.35 µg/mL.

What about the “Total ADC concentration” value (pig, in vivo, sc, 96 h) of the same substance?
The value was 3.74 µg/mL.

What about the “Total ADC concentration” value (pig, in vivo, sc, 168 h) of the same substance?
The value was 2.04 µg/mL.

And the “TADC/Free Payload, AUC0-7” value (serum, IV)?
The value was 116066%.

What about the “TADC/Free Payload, Cmax” value (serum, IV) of the same substance?
Its value is 201037%.

And the “TADC/TAB, AUC0-7” value (serum, IV)?
Its value is 86%.

And the “TADC/TAB, Cmax” value (serum, IV)?
The value was 93%.

What about the “TADC/TAB Ratio” value (serum, IV, 6 h, individual animal) of the same substance?
The value was 0.92 and 0.918.

What about the “TADC/TAB Ratio” value (serum, IV, 24 h, individual animal) of the same substance?
The value was 0.87 and 0.871.

What about the “TADC/TAB Ratio” value (serum, IV, 48 h, individual animal) of the same substance?
The value was 0.80 and 0.804.

And the “TADC/TAB Ratio” value (serum, IV, 72 h, individual animal)?
Its value is 0.88 and 0.877.

And the “TADC/TAB Ratio” value (serum, IV, 96 h, individual animal)?
Its value is 0.77 and 0.773.

What about the “TADC/TAB Ratio” value (serum, IV, 168 h, individual animal) of the same substance?
Its value is 0.99 and 0.994.

And the “TADC/Free Payload, AUC0-7” value (serum, SC)?
Its value is 83512%.

What about the “TADC/Free Payload, Cmax” value (serum, SC) of the same substance?
Its value is 83474%.

What about the “TADC/Free Payload, Tmax” value (serum, SC) of the same substance?
The value was 57%.

What about the “TADC/TAB, AUC0-7” value (serum, SC) of the same substance?
Its value is 87%.

And the “TADC/TAB, Cmax” value (serum, SC)?
Its value is 96%.

And the “TADC/TAB, Tmax” value (serum, SC)?
Its value is 60%.

What about the “TADC/TAB Ratio” value (serum, SC, 6 h, individual animals) of the same substance?
The value was 1.01 and 1.13 and 1.03 and 1.006 and 1.129 and 1.026.

What about the “TADC/TAB Ratio” value (serum, SC, 24 h, individual animals) of the same substance?
The value was 1.55 and 0.84 and 1.19 and 1.546 and 0.845 and 1.194.

What about the “TADC/TAB Ratio” value (serum, SC, 48 h, individual animals) of the same substance?
Its value is 0.81 and 0.82 and 0.76 and 0.808 and 0.823 and 0.756.

What about the “TADC/TAB Ratio” value (serum, SC, 72 h, individual animals) of the same substance?
The value was 0.76 and 0.72 and 0.93 and 0.763 and 0.721 and 0.934.

And the “TADC/TAB Ratio” value (serum, SC, 96 h, individual animals)?
Its value is 0.74 and 0.73 and 0.82 and 0.744 and 0.731 and 0.819.

And the “TADC/TAB Ratio” value (serum, SC, 168 h, individual animals)?
Its value is 1.20 and 0.89 and 0.99 and 1.204 and 0.891 and 0.989.
